Measured values published in patent publication US20130216547A1 (Regeneron, published 2013).
Where a chain is given by its changes, count along the chain named. Numbers in names are those of the source.

T1: small-ET-1 (endothelin-1) (human)
T1 construct: 21 amino acid peptide, same for mouse and human; also called human small-ET-1; EDN-1
T1 peptide: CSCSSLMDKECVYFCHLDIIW

T2: human big-endothelin-1 (big-ET-1) (human)
T2 construct: 38 amino acid peptide; also called human big-ET-1; hBig-ET-1
T2 peptide: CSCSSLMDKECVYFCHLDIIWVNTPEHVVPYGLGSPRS

T3: mouse big-ET-1 (mouse)
T3 construct: also called mBig-ET-1
T3 peptide: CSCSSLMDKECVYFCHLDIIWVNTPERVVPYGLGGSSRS

B1: H4H6330P (antibody, V domains shown)
VH: EVQLVESGGGLVQPGGSLRLSCAASGFTFSNYAMSWVRQAPGKGLEWVSAVSGSGVGTYYADSVKGRFTISRDNSKNTLYLQMKSLSAEDTALYYCTKTLGGTHAFDIWGQGTMVTVSS
VL: DIQMTQSPSTLSASVGDRVTITCRASQSISRWLAWYQQKPGKAPKLLIYKASSLESGVPSRFSGSGSGTEFTVTINSLQPDDFATYYCQQYNSYSSFGQGTKLEIK
notes: Human IgG4 Fc (prefix H4H)
B2: H4H6332P (antibody, V domains shown)
VH: B1 VH with G9E, T28I, N31S, V51I, K84N, S87R, L93V, Y95F, T97A, G101S
VL: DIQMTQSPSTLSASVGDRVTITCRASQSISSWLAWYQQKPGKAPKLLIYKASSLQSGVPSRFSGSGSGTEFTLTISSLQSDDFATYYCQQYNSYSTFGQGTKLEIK
notes: Human IgG4 Fc (prefix H4H)
B3: H4H6492N2 (antibody, V domains shown)
VH: EVQLVESGGGLVKPGGSLRVSCVASGFTFSNAWMTWVRQTPGKGLEWVGRIKSRTDGGTVDYVAPVKGRFTISRDDSKNTLYLQMNSLKAEDTAVYYCRADLDYWGQGTLVTVSS
VL: DVVMTQSPLSLPVSLGQPASISCRSSQSLVHSDGITYLNWFQQRPGQSPRRLIYKISNRDSGVPDRFSGSGSGTDFTLKFSRVEAEDVGVYFCMQGTHWPYTFGQGTKLEIK
notes: Human IgG4 Fc (prefix H4H)
B4: H4H6316P (antibody, V domains shown)
VH: QVQLVESGGGVVQPGRSLRLSCEASGFTFSSYGMHWVRQAPGKGLEWVAVFWYDGSNKYYADSVKGRFTISRDNSKNTLYLQMNSLTAEDTAIYYCARAYDAFDIWGQGTMVTVSS
VL: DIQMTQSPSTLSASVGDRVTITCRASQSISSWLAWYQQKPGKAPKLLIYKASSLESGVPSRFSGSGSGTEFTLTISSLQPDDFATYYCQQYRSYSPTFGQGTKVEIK
notes: Human IgG4 Fc (prefix H4H)
B5: H4H6311P (antibody, V domains shown)
VH: B4 VH with E23A, S31T, Y53F, L79I, T87R
VL: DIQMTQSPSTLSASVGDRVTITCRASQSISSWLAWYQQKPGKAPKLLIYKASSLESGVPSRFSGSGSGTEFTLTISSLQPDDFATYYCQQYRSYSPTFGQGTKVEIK
notes: Human IgG4 Fc (prefix H4H)
B6: H4H6317P (antibody, V domains shown)
VH: B4 VH with E23A, F51L, S56R, T87R, I93V, A99S
VL: DIQMTQSPSTLSASVGDRVTITCRASQSISSWLAWFQQGPGRAPKLLIYKASTLQSGVPSRFSGSGSGTEFTLTISSLQPDDFATYYCQQYRSYSPTFGQGTKVEIK
notes: Human IgG4 Fc (prefix H4H)
B7: H4H6329P (antibody, V domains shown)
VH: QVQLVESGGGVVQPGRSLRLSCAASGFTFGSYGMHWVRQAPGKGLEWVAVIWYDGSDEYYTDSVKGRFTVSRDNSKYTLYLQMNSLRADDTAVYYCARDGYRTRGNYFDYWGQGTLVTVSS
VL: DVVMTQSPLSLPVALGQPASISCRSSQSLVYSDGNTYLNWFQQRPGQSPRRLIYKVSNRDSGVPDRFGGSGSGTDFTLKISRVEAEDVGLYYCMQGTHWPPTFGGGTKVEIK
notes: Human IgG4 Fc (prefix H4H)
B8: H4H6353P (antibody, V domains shown)
VH: EVQLVESGGGLVKPGGSLRLSCAASGFSFNYAWMSWVRQAPGKGLEWIGRIKSKINGGTTDYTAPVKGRFTISRDDSKNTLYLQMNSLKTEDTAVYYCRGDEDFWGQGTLVTVSS
VL: B7 VL with A14T, N35F, Q42R, G68S, K79R, L90I, P101Y, G105Q, V109L
notes: Human IgG4 Fc (prefix H4H)
B9: H2M6490N (antibody, V domains shown)
VH: EVQLLESGGGLVQPGGSLRLSCAASGFTFSSYAMTWVRQAPGKGLECISAISGSGYSTYYADSMKGRFSISRDNSKNTLYLQMNRLRAEDTAVYYCTKGGRILEWLLPFDFWGQGTLVTVSS
VL: B7 VL with A14T, N39I, G68S, K79I
notes: Hybridoma antibody, human variable domains, mouse IgG2 Fc (prefix H2M)
B10: H4H6323P (antibody, V domains shown)
VH: QITLKESGPPLVKPTQTLTLTCTFSGFSLNTNGMGVGWIRQPPGKALEWLTLIYWNDDKRYSPSLKTRLTITKDTSKNQVVLTMTNMDPVDTATYYCARFGSGTYWGQGTLVTVSS
VL: DIVMTQSPLSLPVTPGEPASISCRSSQSLLHSYGYNFLDWFLQKPGQSPQLLIYLGSHRASGVPDRFSGSGSGTDFTLKISRVEAEDVGVYYCMQALQTPLTFGGGTKVEIK
notes: Human IgG4 Fc (prefix H4H)
B11: H4H6338P (antibody, V domains shown)
VH: EVQLVESGGGLVQPGGSLRLSCAASGFAFSSYAMTWVRQTPGKGLEWVSSISGSGGSTYYADSVKGRFTISRDNSKNTLYLQMNSLRAEDTAVYYCAKARTGTHAFDIWGQGTMVTVSS
VL: not shown
notes: Human IgG4 Fc (prefix H4H)
B12: H4H6345P (antibody, V domains shown)
VH: B11 VH with A28I, T40A, S50A, G56V, A88I, A97G
VL: B1 VL with S56T, V73L, N76S, A84G, Q99P, L103V, E104D
notes: Human IgG4 Fc (prefix H4H)
B13: H4H6343P (antibody, V domains shown)
VH: B11 VH with V5L, A28T, T35S, T40A, S50A, G56V, S57G, A97P
VL: not shown
notes: Human IgG4 Fc (prefix H4H)
B14: H4H6340P (antibody, V domains shown)
VH: EVQLVESGGGLVQPGGSLRLSCAASGFTFSSSAMSWVRQAPGKGLEWVSAISGSGVGTYYAASVKGRFTISRDNSKNILYLQMNDLRAEDTALYYCPKARTGTHAFDIWGQGTMVTVSS
VL: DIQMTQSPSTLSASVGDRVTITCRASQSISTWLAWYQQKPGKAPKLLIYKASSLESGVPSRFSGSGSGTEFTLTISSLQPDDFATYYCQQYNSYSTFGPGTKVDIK
notes: Human IgG4 Fc (prefix H4H)
B15: H4H6347P (antibody, V domains shown)
VH: B14 VH with S31N, S32Y, I78T, D85S, L93V
VL: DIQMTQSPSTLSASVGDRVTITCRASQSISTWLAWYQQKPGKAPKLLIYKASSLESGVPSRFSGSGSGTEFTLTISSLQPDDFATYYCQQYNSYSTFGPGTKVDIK
notes: Human IgG4 Fc (prefix H4H)
B16: H4H6334P2 (antibody, V domains shown)
VH: EVQLVESGGGLVKPGGSLRLSCAVSGFTFSIDWMIWVRQAPGTGLEWVGRIKRKTDGGTTDYAAPVKGRFTISRDDSKNTLYLQMNSLKTEDTAIYYCATGGFERWGQGTLVTVSS
VL: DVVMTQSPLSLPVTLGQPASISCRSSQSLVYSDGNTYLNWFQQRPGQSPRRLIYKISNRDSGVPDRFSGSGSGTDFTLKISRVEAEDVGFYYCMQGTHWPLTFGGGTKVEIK
notes: Human IgG4 Fc (prefix H4H)

Target: T1, small-ET-1 (endothelin-1)
Assay: SPR (Biacore T200), 37 C, mAb capture, peptide analyte
Procedure: (§1) Measurements were conducted on a T200 Biacore instrument (Biacore Life Sciences division of GE Healthcare, Piscataway, N.J.). […] Peptide binding was monitored for 3 min while dissociation of mAb-bound peptide was monitored for 4 min in HBST running buffer (0.01 M HEPES pH 7.4, 0.15 M NaCl, 3 mM EDTA, 0.005% v/v Surfactant P20). Kinetic association (kₐ) and dissociation (kd) rate constants were determined by processing and fitting the data to a 1:1 binding model using Scrubber 2.0 curve fitting software.

Binder | binding result
B1 | no binding
B2 | no binding
B3 | no binding
B4 | no binding
B5 | no binding
B6 | no binding
B7 | no binding
B8 | no binding
B9 | no binding
B10 | no binding
B11 | no binding
B12 | no binding
B13 | no binding
B14 | no binding
B15 | no binding
B16 | no binding

Target: T2, human big-endothelin-1 (big-ET-1)
Assay: as above
Procedure: as §1

Binder | Kd [nM] | T½ [s] | koff [s⁻¹] | kon [M⁻¹ s⁻¹]
B1 | 22.9 | 24 | 0.0324 | 1.42e+06
B2 | 29.5 | 18 | 0.0429 | 1.45e+06
B3 | 70 | 24 | 0.0297 | 424000
B4 | 14.8 | 1620 | 0.000428 | 28800
B5 | 15.2 | 2400 | 0.000292 | 19200
B6 | 5.42 | 3480 | 0.000199 | 36700
B7 | 0.297 | 3900 | 0.000176 | 595000
B8 | 1.02 | 600 | 0.00116 | 1.14e+06
B9 | 19.1 | 180 | 0.00399 | 209000
B10 | 10.1 | 120 | 0.00569 | 565000
B11 | – | 6 | 0.12 | 454000
B12 | 87.4 | 12 | 0.058 | 663000
B13 | – | 36 | 0.018 | 1.61e+06
B14 | 11 | 30 | 0.0249 | 2.3e+06
B15 | 13.2 | 30 | 0.0239 | 1.81e+06
B16 | 225 | 18 | 0.0349 | 155000

Target: T3, mouse big-ET-1
Assay: as above
Procedure: as §1

Binder | Kd [nM] | T½ [s] | koff [s⁻¹] | kon [M⁻¹ s⁻¹]
B1 | 50 | 12 | 0.072 | 1.5e+06
B2 | 100 | 6 | 0.196 | 2e+06
B7 | 19 | 3120 | 0.000223 | 11600
B8 | 800 | 300 | 0.00236 | 2900
B10 | 32.9 | 36 | 0.0192 | 580000
B11 | – | 0.6 | 0.885 | 190000
B12 | 65 | 6 | 0.0974 | 1.5e+06
B13 | – | 18 | 0.0453 | 1.8e+06
B14 | 47 | 12 | 0.0603 | 1.3e+06
B15 | 13 | 18 | 0.0414 | 3.1e+06

Target: T2, human big-endothelin-1 (big-ET-1)
Assay: cell-based or functional assay

Binder | Blocking IC50(M), 10 nM hBig-ET-1 + 3 nM hECE1; 293/ETaR/NFAT-Luc luciferase [M]
B1 | 1.7e-09
B2 | 3.1e-09
B3 | 4.17e-08
B7 | 3.3e-09
B8 | 1.8e-09
B10 | 7.6e-09
B14 | 2.1e-09
B15 | 1.5e-09

Target: T3, mouse big-ET-1
Assay: cell-based or functional assay

Binder | Blocking IC50(M), 20 nM mBig-ET-1 + 5 nM mECE1; 293/ETaR/NFAT-Luc luciferase [M]
B1 | 1.6e-09
B2 | 1.2e-09
B4 | > 1e-07
B6 | > 1e-07
B7 | > 1e-07
B8 | > 1e-07
B10 | 4e-09
B14 | 1.5e-09
B15 | 1e-09

Target: T2, human big-endothelin-1 (big-ET-1)
Assay: cell-based or functional assay
Remark: another data set of the same source

Binder | Blocking IC50(M), 10 nM hBig-ET-1 + 3 nM hECE1 [Trial 1]; 293/ETaR/NFAT-Luc luciferase [M]
B9 | 1.9e-09
